Biological target: T1, Recombinant human TpoR extracellular domain D1-D4 with mature N-glycans (human, UniProt P40238 26-489, mature N-glycans (4 N-glycans on the ECD))
T1 construct: thrombopoietin receptor (TpoR), human, extracellular domain D1-D4, starts at Q26 and ends at T489; details in Supplementary Methods; also called TpoR D1-D4; hTpoR D1-D4; source: Schneider S2 cells, purified; not shown: His tag, C-terminal, kept
T1 sequence (looked up): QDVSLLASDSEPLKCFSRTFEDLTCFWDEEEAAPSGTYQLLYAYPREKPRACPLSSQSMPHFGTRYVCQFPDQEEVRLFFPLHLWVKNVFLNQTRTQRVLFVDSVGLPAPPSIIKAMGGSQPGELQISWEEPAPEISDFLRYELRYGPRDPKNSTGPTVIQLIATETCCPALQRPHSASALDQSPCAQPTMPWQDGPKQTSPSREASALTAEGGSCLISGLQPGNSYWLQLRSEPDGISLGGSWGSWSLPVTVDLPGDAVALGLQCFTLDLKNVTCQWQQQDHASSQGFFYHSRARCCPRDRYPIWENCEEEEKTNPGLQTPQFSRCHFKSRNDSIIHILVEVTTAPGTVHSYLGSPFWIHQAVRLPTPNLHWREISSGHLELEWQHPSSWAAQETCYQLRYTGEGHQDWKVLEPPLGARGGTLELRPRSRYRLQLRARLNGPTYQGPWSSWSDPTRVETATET
Experiment: MST; CALR del52 labelled with RED-NHS at 20 nM; label-free TpoR D1-D4 titrated 0.15 nM to 5 μM; Tris-based MST buffer with 0.01% Tween 20; Monolith NT.115, 40% LED, medium MST power
Conditions: both partners purified

Kd: ~104 nM
B1: Recombinant human CALR del52 (natural protein)
chain: EPAVYFKEQFLDGDGWTSRWIESKHKSDFGKFVLSSGKFYGDEEKDKGLQTSQDARFYALSASFEPFSNKGQTLVVQFTVKHEQNIDCGGGYVKLFPNSLDQTDMHGDSEYNIMFGPDICGPGTKKVHVIFNYKGKNVLINKDIRSKDDEFTHLYTLIVRPDNTYEVKIDNSQVESGSLEDDWDFLPPKKIKDPDASKPEDWDERAKIDDPTDSKPEDWDKPEHIPDPDAKKPEDWDEEMDGEWEPPVIQNPEYKGEWKPRQIDNPDYKGTWIHPEIDNPEYSPDPSIYAYDNFGVLGLDLWQVKSGTIFDNFLITNDEAYAEEFGNETWGVTKAAEKQMKDKQDEEQRTRRMMRTKMRMRRMRRTRRKMRRKMSPARPRTSCREACLQGWTEA
modifications: RED-NHS dye on lysines (in the MST experiment only)

From article PMC10076285, “Oncogenic CALR mutant C-terminus mediates dual binding to the thrombopoietin receptor triggering complex dimerization and activation” (Nature Communications, 2023)
